{
  "source": "paper PMC7904604",
  "binders": {"B1": {"name": "non-specific sequence (dsDNA)", "DNA 1": "GGCTCTTCCGGTCGTGCAAGAGGAAATACAAAAAA", "DNA 2": "TTTTTTGTATTTCCTCTTGCACGACCGGAAGAGCC"}},
  "target": "GST-BLMP-1(ZnFs) (Caenorhabditis elegans, UniProt Q93560 508-642)",
  "sequence (Q93560 508-642)": "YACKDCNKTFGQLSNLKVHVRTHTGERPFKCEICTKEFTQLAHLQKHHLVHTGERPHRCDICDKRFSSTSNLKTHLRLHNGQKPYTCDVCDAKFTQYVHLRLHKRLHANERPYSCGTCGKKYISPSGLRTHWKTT",
  "assay": "competition",
  "data": [
    {"binder": "B1", "values": [
      {"measurement": "binding result", "value": "no binding"}
    ]}
  ]
}
